Test [1] addresses SpyTag-EGFP-SdyTag (Streptococcus pyogenes | Streptococcus dysgalactiae). Briefly: covalent ligation read by SDS-PAGE and densitometry; step-wise reaction of dual-Tag constructs with SpyCatcher, 5 and 30 minutes; at 5 minutes aliquots given additional SpyCatcher or SdyCatcher DANG short for a further 25 minutes.
Test [2] addresses SdyTag-EGFP (Streptococcus dysgalactiae). Briefly: kinetics of covalent ligation by SDS-PAGE and densitometry; equimolar Catcher and Tag-EGFP (10 uM for SpyTag-EGFP; 50 uM for SdyTag-EGFP by S3 and S4 Figs), 100 uM sodium phosphate buffer pH 7, 25°C; second order rate constants from Catcher depletion; triplicates.
Test [3] concerns the target SpyTag-EGFP (Streptococcus pyogenes). The description is as above.
The target in test [4] is SdyTag-EGFP (Streptococcus dysgalactiae). As to the kind of experiment: covalent ligation read by SDS-PAGE and densitometry; 50 uM Catcher with 65 uM SdyTag-EGFP (1.3 equivalents), 100 uM sodium phosphate buffer pH 7, 25°C, 40 minutes; quenched with SDS-PAGE loading buffer and boiled; yield with respect to the limiting Catcher; triplicates.

Turning to SpyCatcher (domain or fragment), the percent of products ligated twice in test [1] is below 10%. Besides, the results for the second order rate constant of covalent ligation in test [2] and in test [3] were 1 M⁻¹ s⁻¹ and 322 M⁻¹ s⁻¹, respectively. The yield of ligated product after 40 minutes in test [4] is 7%.

The values are drawn from paper PMC5082641.
